In test [1] the target is Gα13 (GNA13, full-length, from the cDNA resource center) (UniProt Q14344).
The target is the same in test [2]. This is another data set of the same source.
The target is the same in test [3]. This is another data set of the same source.
For test [4], the target named is Gα12 (GNA12, full-length, from the cDNA resource center) (UniProt Q03113).
Test [5] has the same target. This is another data set of the same source.
Test [6] has the same target. This is another data set of the same source.

Two molecules from publication PMC11398566 can be followed below.

Chain of UniProt Q14344 (Q14344 whole entry): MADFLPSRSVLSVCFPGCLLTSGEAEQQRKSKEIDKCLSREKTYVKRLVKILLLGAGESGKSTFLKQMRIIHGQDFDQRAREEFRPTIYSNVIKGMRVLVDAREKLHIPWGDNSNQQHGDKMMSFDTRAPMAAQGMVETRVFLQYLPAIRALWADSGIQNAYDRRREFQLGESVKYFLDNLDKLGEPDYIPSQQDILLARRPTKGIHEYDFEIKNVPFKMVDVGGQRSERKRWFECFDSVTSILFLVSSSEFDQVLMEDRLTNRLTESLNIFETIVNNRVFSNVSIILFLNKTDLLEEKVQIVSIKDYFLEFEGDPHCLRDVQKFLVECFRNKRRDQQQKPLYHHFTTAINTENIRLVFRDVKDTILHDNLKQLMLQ
Chain of UniProt Q03113 (Q03113 whole entry): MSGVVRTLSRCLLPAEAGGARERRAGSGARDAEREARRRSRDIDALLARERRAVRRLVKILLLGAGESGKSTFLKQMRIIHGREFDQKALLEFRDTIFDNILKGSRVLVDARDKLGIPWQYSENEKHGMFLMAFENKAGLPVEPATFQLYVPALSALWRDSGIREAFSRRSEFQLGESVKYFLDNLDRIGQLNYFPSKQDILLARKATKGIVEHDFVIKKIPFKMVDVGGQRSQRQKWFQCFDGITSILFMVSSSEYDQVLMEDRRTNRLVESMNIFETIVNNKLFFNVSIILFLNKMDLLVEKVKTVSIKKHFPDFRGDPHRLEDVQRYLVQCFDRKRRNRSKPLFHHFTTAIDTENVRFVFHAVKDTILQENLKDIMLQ

For the molecule “PDZ-RhoGEF-RlucII (Gα12/13 binding domain of human PDZ-RhoGEF, residues 281–483) (from UniProt O15085 281-483) (domain or fragment)”, the ebBRET between PDZ-RhoGEF-RlucII and rGFP-CAAX, ΔGα12/13 cells with Gα13 and GPR56-T383A, time course after 20 nM 10C7, ΔBRET max in test [1] was 0.5 ΔBRET. In test [2], this molecule had an ebBRET between PDZ-RhoGEF-RlucII and rGFP-CAAX (recruitment to the plasma membrane), ΔGα12/13 cells with Gα13, constitutive, GPR56-WT DNA up to 250 ng; no increase without Gα13 of 0.44 BRET ratio. In addition, the ebBRET between PDZ-RhoGEF-RlucII and rGFP-CAAX, ΔGα12/13 cells with Gα13 and GPR56-WT, time course after 20 nM 10C7, maximal ΔBRET after 24 min in test [3] was 0.7 ΔBRET.

B1: p115-RhoGEF-RlucII (Gα12/13 binding domain of human p115-RhoGEF, residues 1–244) (domain or fragment)
chain: MEDFARGAASPGPSRPGLVPVSIIGAEDEDFENELETNSEEQNSQFQSLEQVKRRPAHLMALLQHVALQFEPGPLLCCLHADMLGSLGPKEAKKAFLDFYHSFLEKTAVLRVPVPPNVAFELDRTRADLISEDVQRRFVQEVVQSQQVAVGRQLEDFRSKRLMGMTPWEQELAQLEAWVGRDRASYEARERHVAERLLMHLEEMQHTISTDEEKSAAVVNAIGLYMRHLGVRTKSGDKKSGRNF
As to B1, the ebBRET between p115-RhoGEF-RlucII and rGFP-CAAX, ΔGα12/13 cells with Gα12 and GPR56-T383A, time course after 20 nM 10C7, ΔBRET max in test [4] was 0.2 ΔBRET. In test [5], the ebBRET between p115-RhoGEF-RlucII and rGFP-CAAX (recruitment to the plasma membrane), ΔGα12/13 cells with Gα12, constitutive, GPR56-WT DNA up to 250 ng; no increase without Gα12 is 0.44 BRET ratio; the ebBRET between p115-RhoGEF-RlucII and rGFP-CAAX, ΔGα12/13 cells with Gα12, constitutive, increasing GPR56-T383A DNA, maximum was 0.228 BRET ratio. In test [6], the ebBRET between p115-RhoGEF-RlucII and rGFP-CAAX, ΔGα12/13 cells with Gα12 and GPR56-WT, time course after 20 nM 10C7, maximum ΔBRET at 8 min is 0.19 ΔBRET.
